Assay results: PMC11833248, “Evolutionary and Functional Analysis of Monoamine Oxidase F: A Novel Member of the Monoamine Oxidase Gene Family” (Genome Biology and Evolution, 2025)

B1: Human MAOA (Homo sapiens) (protein)
chain: MENQEKASIAGHMFDVVVIGGGISGLSAAKLLTEYGVSVLVLEARDRVGGRTYTIRNEHVDYVDVGGAYVGPTQNRILRLSKELGIETYKVNVSERLVQYVKGKTYPFRGAFPPVWNPIAYLDYNNLWRTIDNMGKEIPTDAPWEAQHADKWDKMTMKELIDKICWTKTARRFAYLFVNINVTSEPHEVSALWFLWYVKQCGGTTRIFSVTNGGQERKFVGGSGQVSERIMDLLGDQVKLNHPVTHVDQSSDNIIIETLNHEHYECKYVINAIPPTLTAKIHFRPELPAERNQLIQRLPMGAVIKCMMYYKEAFWKKKDYCGCMIIEDEDAPISITLDDTKPDGSLPAIMGFILARKADRLAKLHKEIRKKKICELYAKVLGSQEALHPVHYEEKNWCEEQYSGGCYTAYFPPGIMTQYGRVIRQPVGRIFFAGTETATKWSGYMEGAVEAGERAAREVLNGLGKVTEKDIWVQEPESKDVPAVEITHTFWERNLPSVSGLLKIIGFSTSVTALGFVLYKYKLLPRS
notes: recombinant, overexpressed and purified by published protocols
B2: Human MAOB (Homo sapiens) (protein)
chain: SNKCDVVVVGGGISGMAAAKLLHDSGLNVVVLEARDRVGGRTYTLRNQKVKYVDLGGSYVGPTQNRILRLAKELGLETYKVNEVERLIHHVKGKSYPFRGPFPPVWNPITYLDHNNFWRTMDDMGREIPSDAPWKAPLAEEWDNMTMKELLDKLCWTESAKQLATLFVNLCVTAETHEVSALWFLWYVKQCGGTTRIISTTNGGQERKFVGGSGQVSERIMDLLGDRVKLERPVIYIDQTRENVLVETLNHEMYEAKYVISAIPPTLGMKIHFNPPLPMMRNQMITRVPLGSVIKCIVYYKEPFWRKKDYCGTMIIDGEEAPVAYTLDDTKPEGNYAAIMGFILAHKARKLARLTKEERLKKLCELYAKVLGSLEALEPVHYEEKNWCEEQYSGGCYTTYFPPGILTQYGRVLRQPVDRIYFAGTETATHWSGYMEGAVEAGERAAREILHAMGKIPEDEIWQSEPESVDVPAQPITTTFLERHLPSVPGLLRLIGLTTIFSATALGFLAHKRGLLVRV
notes: as for B1

What was measured:
Test in all cases: purified protein
Settings in all cases: 25 °C, 50 mM Hepes/NaOH pH 7.5, 0.5% v/v reduced Triton X-100
[1] = substrate: NCCc1c[nH]c2ccc(O)cc12
[2] = substrate: NCCC(=O)c1ccccc1N; assay type: biochemical, Homo sapiens
[3] = substrate: NCCc1ccc(O)cc1; assay type: biochemical, Homo sapiens
[4] = substrate: NCCc1ccccc1; assay type: biochemical, Homo sapiens
[5] = substrate: NCc1ccccc1

Protein	Km [1] [µM]	kcat [1] [s⁻¹]	kcat/Km [1] [M⁻¹ s⁻¹]	Km [2] [µM]	kcat [2] [s⁻¹]	kcat/Km [2] [M⁻¹ s⁻¹]	Km [3] [µM]	kcat [3] [s⁻¹]	kcat/Km [3] [M⁻¹ s⁻¹]	Km [4] [µM]	kcat [4] [s⁻¹]	kcat/Km [4] [M⁻¹ s⁻¹]	Km [5] [µM]	kcat [5] [s⁻¹]	kcat/Km [5] [M⁻¹ s⁻¹]
B1	1800 ± 100	3.777 ± 0.075	2100	200 ± 20	1.39 ± 0.0383	6920	100 ± 20	1.53 ± 0.07	15300	400 ± 100	0.803 ± 0.055	2010	–	–	–
B2	–	–	–	52 ± 7	0.485 ± 0.0167	9300	400 ± 110	0.742 ± 0.0833	1850	11 ± 1	0.758 ± 0.0167	68900	350 ± 100	0.738 ± 0.0833	2100
